Reference: the nanobody polyreactivity screen of Harvey et al. (2022)

test: yeast display, Sf9 membrane polyspecificity reagent, FACS + sequencing; frameworks hold sequencing errors
In short: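 In a synthetic yeast display library (Saccharomyces cerevisiae BJ5465), nanobody expression was induced with galactose for 36–48 hours. FACS gates were set low and high (top ~1%) using anti-HA fluorescence for expression and streptavidin fluorescence for binding of the Sf9 membrane reagent. Each polyreactivity label is drawn from the gate of origin.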

| Sequence | polyreactivity (PSR sort gate) |
| --- | --- |
| QVQLVESGGGLVQAGGSLRLICAASGSIFVNNAMGWYRQAPGKERELVAAISRSGGSTYYADSVKGRFTISRDNAKNTVYLQMNSLKPEDTAVYYCATVHRSSTPPEFNYWGQGTQVTVSS | high polyreactivity |
| QVQLVESGGGLVQAGGSLRLICAASGSIFYNNDMGWYRQAPGKERELVAAINWNGGSTYYADSVKGRFTISRDNAKNTVYLQMNSLKPEDTAVYYCNAEPFWYNYGYDDDYWGQGTQVTVSS | high polyreactivity |
| QVQLVESGGGLVQAGGSLRLICAASGSILYKYAMGWYRQAPGKERELVAAISSRGGNTYYADSVKGRFTISRDNSKNTVYLQMNSLKPEDTAVYYCAADLWAGKYGEYDYWGQGTQVTVSS | high polyreactivity |
| QVQLVESGGGLVQAGGSLRLICAASGSTFDLYAMGWYRQAPGKESELVAAITRCGSTYYADSVKGRFTISRDNAKNTVYLQMNSLKPEDTAVYYCAASRYYNTVHNGGDYWGQGTQVTLSS | high polyreactivity |
| QVQLVESGGGLVQAGGSLRLICAASGSTFGDYDMGWYRQAPGKETELVAAISNGGSTYYADSVKGRFTISRDYAKNTVYLQMNSLKREETAVYYCNADNVEIRSTYEYGRYLYGYWGQGTQVTVSS | low polyreactivity |
| QVQLVESGGGLVQAGGSLRLICAASGSTFGFYGMGWYRQAPGKERELVASIDSRGDSTYADSVKGRFTISRDNAKKTVYVQMNSLKPEDTAVYYCAAESWYTWFDSWGQGTQVTVSS | low polyreactivity |
| QVQLVESGGGLVQAGGSLRLICAASGSTFPTYAMGWYRQAPGKERELVAAISTRGGSTYYADSVKGRFTISRDNAKNTVYLQMNSVKPEDTAVYYCATGKTVGRYHYEYWGQGTQVTVSS | low polyreactivity |
| QVQLVESGGGLVQAGGSLRLICAASGSTFQLTAMGWYIQAPGTEREFVASITDSGGRTYYADSVKGRFTISRDNANNTVYLQMNSLKPVDTAVYYCNTAGAAERRRAYDHDYWGQGTQVTVSS | high polyreactivity |
| QVQLVESGGGLVQAGGSLRLICAASGSTFSSYAMGLYIQAPGKEREFVAAINTDGGSTYYADSVKGRFTISRDNAKNTVYLQMNSLKPEDTAVYYCAADDISLAAHFDSWGQGTQVTVSS | low polyreactivity |
| QVQLVESGGGLVQAGGSLRLICAASGSTFVFYAMGWYRQAPGKERELYATISTGGSTYADSVKGRFTISRDNSKNTVYLQMNSLIPEDTAVYYCNARLRSFTLSDAEYEYWGQGTQETVSS | low polyreactivity |
| QVQLVESGGGLVQAGGSLRLICAASGSTNPRNAMGWYRQAPGKERELDADITSGGSTNYADSVKGRFTISRDNAKNTVYLQMNRLKPEDTAVYYCAADEQVNTQYVVWGDYWGQGTQVTVSS | low polyreactivity |
| QVQLVESGGGLVQAGGSLRLICAASGSTSQINAMGWYRQAPGKERELVAAINSGDITNYADSVKGRFTISRDNAKNTVYLQMNSLKPEDTAVYYCNADILVVKFDYWGQGTQVTVSS | low polyreactivity |
| QVQLVESGGGLVQAGGSLRLICAASGSTYSYYAMAWYRQAPGKERELVAAINSSGGSTYYADSEKGRFTISRDKAKNTVYLQMNSLKPEDTAVYYGAAARRRTGVRMDYWGQGTQVTVSS | high polyreactivity |
| QVQLVESGGGLVQAGGSLRLICAASGYIFDHYAMGWYRQAPGKERELVAAINWSGGRTYYADSVKGRFTISRDNAKNTVYLQMNSLKPEDTAVYYCAAGGVSENDYWGQGTQVTVSS | high polyreactivity |
| QVQLVESGGGLVQAGGSLRLICAASRFTFPGYTLGWYRQEPGKERELVATINRSGSTTYADSVKGRFTISRDNAKNTVYLHMYRLKPQDTADYYCAAVVWGSGNKMDYWGQGTQVTGSS | high polyreactivity |
| QVQLVESGGGLVQAGGSLRLICAASRRTYYSNAMGWYRQAPGKERELVAASTSTDDSTYYADSVKGRFTISRDNAKNTVYLQMNSLKPEDTAVYYCNTDGLIAIRGLWWVEYDYWGQGTQVTVSS | low polyreactivity |
| QVQLVESGGGLVQAGGSLRLICAATGITFEGYAMGWYRQAPGKERELVAAIRSSGTSTYYADSVKGRFTISRDNAKNTVYLQMNSLKPEDTAVYYCNRARSSSRYDYWGQGTQVTVSS | low polyreactivity |
| QVQLVESGGGLVQAGGSLRLICAAWSIFYLNAMGWYRQAPGKERELVAAISSAGSTYYADSVKGRFTISRDNAKNSVYLQMNSLKPEDTAVYYCAAYWYDSPGVTEIWYDYWGQGTQVTVSS | low polyreactivity |
| QVQLVESGGGLVQAGGSLRLICAAYGLTFTRNAMGWYRQARGKERELVAGITRGGSTYHADSVKGRFTISRDNAKNTVYLQMNSLKPEYTAVYYCAAGVQYARYQARYYYWGQGTQVTVSS | high polyreactivity |
| QVQLVESGGGLVQAGGSLRLICADSGLTFSCYTMGGYRQAPGKERELVADITVSGGTTYYADSVKGRFSISRDNAKNTVYLQMNSLKPEDTSVYYCNAQDTFTYYSSSPTYDYWGQGTQVTVSS | low polyreactivity |

| Sequence | polyreactivity (PSR sort gate) |
| --- | --- |
| QVQLVESGGGLVQAGGSLRLICADSGRIVPGYAMGWYRQAPGKERELVAAISTNGGRTYYADSVKGRFTISRDNAKYTVYFQRNSLKPEDTAVYYCNAARAVYTQKRFDSWGQGTQVTVSS | high polyreactivity |
| QVQLVESGGGLVQAGGSLRLICAPSGIIFTSNTMGWSRQAPGNERECVASINWNGSSTYADSVKGRFTISRDIAKNTVYLQMNSLKPEDTAVFYCNADYNRNSVQFSLYDYWGQGTQVTVSS | low polyreactivity |
| QVQLVESGGGLVQAGGSLRLICDASGRIFATNAIGWYRQAPGKERELVATITRSAGRTYYADSVKGRFTISRDNAKNTVYLQMNSLKPEDTAVYYCAASYWDTEPGYREYDYWGQGTQVTVSS | low polyreactivity |
| QVQLVESGGGLVQAGGSLRLICDASGSIFEDYTMGWYRPGPGKERELVAASSRSGVRKYYADSVKGLFTISRDNAKNTVNLQMNSLKPEDTGVYYCARTRVASKGYDYWGQGTQVTVSS | high polyreactivity |
| QVQLVESGGGLVQAGGSLRLICDASGSTFERYALGWYRQAPGKERELVAAITWGGGSTNYADSVKGRFTISRDNEKNTVYLQMNSLNPEDTAVYYCRPLYLGGDYWGQGTQVTVSS | low polyreactivity |
| QVQLVESGGGLVQAGGSLRLICSASGSIFPQYAMVSYRPEPGKERALFAAISYSGGRSYYADSVKGRFTISRDIAKNTVYLQMNSLKTEYTGVYYWAARVKRGIPTYGKCYYAFGDWGQGTQVTVSS | high polyreactivity |
| QVQLVESGGGLVQAGGSLRLISAASGITFRYYVMGWYRHAPGKERELVASISWGGGSTYYADSVKGRFTISRDNAKNTVYLHMNSLIPEDTAVYYCAAEYWVPAVKFGYEFWGQGSQVTVSS | high polyreactivity |
| QVQLVESGGGLVQAGGSLRLISAASGRTFRVYAIGWYRPAPGKEREFVATISVRGGSTYYADSVKGRFTISRDNAKNTVYLQMNSLKPEDTAFYYCAADSYPYVYALYDYWGQGTQVTVSS | low polyreactivity |
| QVQLVESGGGLVQAGGSLRLISAASGSIFDEYAMGWYRQAPGKERELVAAISSSGTSTYYADSVKGRFTISRDNAKNTVYLQMNSLKPEYTAVYYCAARSAFLKSGYLMDYWGHGTQVTVSS | low polyreactivity |
| QVQLVESGGGLVQAGGSLRLMCAASGSTFRRNAMGWYRQAPGKERELVASISWRAGSTYYADSVKGRFTISRDNAKNTVYLQMNSLKQEDTAVYYCAASYYYYPSWEYEYWGQGTQVTVSS | high polyreactivity |
| QVQLVESGGGLVQAGGSLRLNCAASGFTFYTYAMGWYRQAPGKERELVAAITSGGGTYYADSVKGRFTISRDNAKYSVYLQMNSLKPEDTAVYYCNRASRRGYYYPYNYWGQGTQVTVSS | high polyreactivity |
| QVQLVESGGGLVQAGGSLRLNCAASGIIFIVYRMGWYRQAPGKERELVASINYGNGSTYYADSVKGRFTISRDNAKTTVYLQMNSLKQEDTAVYYCNADYTGTRTDSVTPEYEYWGQGTQVTVSS | low polyreactivity |
| QVQLVESGGGLVQAGGSLRLNCAASGITCEYYAMGWYREAPGKERDLVAAISWSGGSTYYADSVKGRFTNSRDNANNTVYLQINSLKTEDTAVYDFYAVGFTYLDLYGYWGQGTQLTVSS | high polyreactivity |
| QVQLVESGGGLVQAGGSLRLRCAASANTFGFYAMGWYRQAPGKERELVAGITSGDSTYYADSVKGRFTISRDNAKNTVYLQMNSLKPEDSAVYYCATAPYVSSRRYGPYEYWGQGTQVTVSS | low polyreactivity |
| QVQLVESGGGLVQAGGSLRLRCAASARTFGKYAMGWYRQAPGKERELVASNSLSGGSTYYADSVKGRFTISRDNAKNTVYLQMNSLKPEDTAVYSCAAKHGWYGLGYWGQGTQVTVSS | low polyreactivity |
| QVQLVESGGGLVQAGGSLRLRCAASGFTFHRYAMGWYRPAPGKERELVAGITRRSGSTFYADSVKGRFTISRDNAKNTVYLQMNSLKPEDTAVYYCAATVPGLHWIYDYWGQGTQVTVSS | high polyreactivity |
| QVQLVESGGGLVQAGGSLRLRCAASGFTFYRYAMGWYRQAPGKERELVAAISQRGGTTYYADSVKGRFTISRDNSKNTVYLQMNSLKPDDPAVYYCAARGRAYQNAYEYDYWGQGTQVTVSS | high polyreactivity |
| QVQLVESGGGLVQAGGSLRLRCAASGFTSYINAMGWYRQAPGKERELVAGITWSTGNTYYADSVKGRFTISRDNAKNTVYLQMNSLKPEDTAVYYCAADFYVAYVGVQPYWMDYWGQGTEVTVSS | low polyreactivity |
| QVQLVESGGGLVQAGGSLRLRCAASGGNFDNYAMGWYRQAPGKERELVAAISRSGSSTFYADSVNGRFTISRDNAKNTVYLQMNSLKPEDTAVYYCSARYYYFAVYYGYIFEYDYWGQGTQLTVSS | low polyreactivity |
| QVQLVESGGGLVQAGGSLRLRCAASGIFAFYAMGWYRQAPGKERELVAGIDDGGSTDYADSVKGRFTISRDNAKNTVYLQMNSLKPEDTAVYYCAATERLEVWSRPYVWVTLDYRGQGTQVTVSS | low polyreactivity |
